# Test results taken from a protein production outcome set (Wang et al. 2014).
# Experiment: label from the status in PepcDB records
row,Sequence,protein production
1,MAQKVEAGGGAGGASWDDGVHDGVRKVHVGQGQDGVSSINVVYAKDSQDVEGGEHGKKTLLGFETFEVDADDYIVAVQVTYDNVFGQDSDIITSITFNTFKGKTSPPYGLETQKKFVLKDKNGGKLVGFHGRAGEALYALGAYFATTTTPVTPAKKLSAIGGDEGTAWDDGAYDGVKKVYVGQGQDGISAVKFEYNKGAENIVGGEHGKPTLLGFEEFEIDYPSEYITAVEGTYDKIFGSDGLIITMLRFKTNKQTSAPFGLEAGTAFELKEEGHKIVGFHGKASELLHQFGVHVMPLTN,failed
2,MDKLRGMETFIAVVECGSFTGAASRLGLSAVMVGKYIAQLESQLATRLLERNTRRQSLTDAGRVYFDEAKRVMEQVSIAESAVERLRLAPAGTLRVSAPTSFGASVIAPLTATFLQAWPAVRVELDLTNRMVDLVDEGVDLAIRIGEIHQEDLVARYLAPYRMVICAAPAYLARYGTPGTPEDLTDHLCLSHTVWTARNEWRLPGVEGEVRWKRDAVLRCNDGYALRQAAIAGAGLLMQPEVLLADALASGSLVRVLEAWTPQPRPVHLLWRQDRRPLPKLTQFIAHLQQGMADALTTTRASE,failed
3,MSYLLRREEVVDVAGLQAMLEETPGKAAQAILAAAGQGVVEAQLLLGQILLDGRGIQQDATVARRWFGIAAQGGSAMAHNMLGRCLEHGWGGEVNLVQAAVHYARAADSGLDWGLYNLGNLLATGRGVPANQVQALMCYEKAAQLGHAKSMNLYGRYLEQGIATAPSPARAVRWYRRSAEAGDFRGMFSLALVLVERGQLAEAGQWLEQARVAGNMNFLRAALVTLQDAGPVLMAFAARYAEEIDRREEAGTGEHT,failed
4,MEGVELELERRSKFLNSLIQKKKAKEQQDQKDEFNVRVRASDMPLPQQNRAFSLSREILNATPGKADNKRLAHALKKDFDSAYGPAWHCIVGTSFGSYVTHSTGGFLYFQIDKVYVLLFKTAVEPLDQK,failed
5,MKIEKQVNDLRIIELEKELENNPFIPILYWELGLNYLISVGEEKAEEIWSLGLLQCFTSFDEGLLSLVGFIEQHIELNKNDKQTVLILWQQIIKIVPNYLAGHLNLLVVACELKVFSAEKLAYLGTVALINSIDSGCISQQEEELLLRATLSILEFPTALSLDFLRSSIPLLVNLPWCDAVMAFANSMVYDKQLFSYGVEIAEICLQYSPNNLFILNDLIRFYGLRKDQDALLRTARNLLNIFRQQDFEPDFGFYLSSRLLSAFMTGNDWEQVQSIASIFKDYFILLQNEKSVVLNNFLRDRFWGLGFSLLYLFDEPESNRRCLNFNASIFQQNLTENQNKTICQEENLPKKKQVSLKRIGYIAHTLRQHSVGWLCRWLFKYHDREKFEIFVYLIGQPEDELTENWIYPNVSKYYHFGRDKNEIIKQIKQDQIQILVDLDVLTHNITAQVLAHKPAPVQVSWLGSDASGLPAIDYFIVDPYVVPDDAEGYYREKLWRLPQTYLAVDGFEMGTPTLSREQLGIKPNTVIYLSVQNKIKSNPNILKLQLQILQSVPDSVFLIKGGGDNELIRAMVEQLAKEMGLDLHRIRFLPKDGDEMTHRANLSIADVVLDTYPYNGATTTLETLWMEVPLVTRVGKQFASRNSYTFLTQLNIREGLAWNDQEYVYWGTRFGLEKSLREKVKNELNLGKYKSKLWRAKDFTQELELAYEGMWNGDLD,failed
6,MTELMGQILGDRYELLRELGSHPGRRTYLALDRWHYEQVVLKLLLFGGGITWDDFKLFEREVAVLQTLDHPAIPRYLDYFEINTPDLKGFALVQTYIEAKSLALWQAEGRVFSEGDLRLLADRLLDILIYLHSRQPPVIHRDIKPTNILLGDRSGHDLGKVYLVDFGAVQTAIAGSTRTVVGTYGYMPPEQFGGKTLPASDLYALGMTLIYLATATPPDELPQKELRVQFQPLVSLSPPFIRWLEKMVAPALEERFDSATAARHALKQLDRSAEDASLITKTPPYGSRLQVRESPQGLLVHIPPVGLNASLFFLIPFAVAWNGFLVVWYSLAIASGFWLMAVFATGHLAVGLGLIGGILYRLLGWQVLMVSPKDLRFYEHILGFRWRHAKVLPLEVIEEIELQPRGTCRHQEDDRQQLWSKLVIRAGSQEIELTENAPRVTSRDLEWLAYTLGRYLGRRVTQARQDCRST,failed
7,MLMNLPEILKNQKARARKFKPVKMSKRTELWYRQQLKQFVKMMTNDVERALQQPQGSFFMDDAKGFQAISAKALMKVLEKYEKSDRTSQAENIANGFVSRGDAQNHAEVSTNLKNQTGIDLSAYLRNSPNITEKVNALTAGNIQLIKSIRSQYLDKVQNAVMQAMVRGSLNKDLAAQIKDLGKTTEKRAMFIARDQSSKLNAALTQARHEEVGIKKYMWSASLDERVRESHAEKDGQIFEYANPPADTDHPGHDFNCRCVQIPVLDNNEQIVKNSPIVSQQEKQQMRSEWSDDFPDTIIDRKLGDATSHPLYENAKKGSIEDAYQLAKDLVTDDAVNKLKQLVGNKNAILIPVHAEEAVGQNMIPVAIATVLSKKLHIPVDLSIVQATKVSRTGGDGWHRLVYSPAFDGIVPKDKYAIILDDTQTQGGTLASLKGYIIKEKLLHLML,failed
8,MKGIMVQGTASDVGKSLICTALCRIFARRGYKVTPFKSQNMSNNSYITVEGLEIGRAQGIQAEAAMEEASVYMNPILLKPRNDREAEIVCFGQAVDTVSGVKYRDGFYKRGLEAIKQALATLSQSFDMVVIEGAGSPVEVNLNDRELVNMKVAELADVPVILVADIERGGVFASLYGTLELLQPNERKRVVGIIVNKFRGDPELFSSGVQWIEQHLGVPVLGVLPHLPGVRIEGEDSLSKGQVTSVLPRDQSIDIAVLDLPYLSNYTDLEPFRYEEDVAIRFVSSVDALGRPDAIILPGTKSTFHDLQILKEKGFKERLHEYVTTDGTVVAICGGFQMLGHRLIDVAGSDTGIKGATIDGLDLAPVETRFAEKKKTVRSLGQLLHPFGTAKDIYGFEIHLGETDIVDPSIPAFLRVGNHTDGVYLHEGRLIGTYFHHLFFNDDFRSGWLNTLRRKKGLRERPTVELEKCRRASYDQLADEVERVLHVDSLLEKMERWGETSLEHHHHHH,not failed
9,ACTQPSDWVPPAKNDALVIALKKVIGGRLSDAFHIRDKLQRRDAIAAVKDDVIQQLAGRLEVEGWNLAELLKEFGELEYRTMRDALLDTKVRIDGRSLEAVRP,not failed
10,MMTAPGIYYDGRTSARRTVRLTLEGNRLLVAGEGVETSAELSRLAISSPLSTARRSVRFPSGALCEVSDTRFVDELMRRQGKGRASAAIHRWERSLPLALVALVATVAVVWGFVAFGIPALADKVARAVPPVTEVSLGRESLAMLDKLVFTPSRLPDARRRDIAAQFSRMGRDLPFAAGYRLEFRRSDQLGANALALPSGIIVVTDRLVEIAQSDDELIGVLAHEMGHVRHRHALRHVLQNSATGLIIAAITGDITSITSLAATLPTVLVDASYSRSFETEADDAAVAYLKRRGIPLKSYAAMLGRLEAEHRKKQEEKGKKEKKSLGDYFSTHPVTEERIKRVLEAGRLEHHHHHH,not failed
11,MKKIGIIGAGGIARAHATALSTIKNAELVGVYDINQQNAESFVKTFGGKSFENVDELIDASEGLIVASPNFCHKEHALQALGKHKHVLCEKPMAISLEEASIMKDTAERLSVRASMGFNYRYLSYVNILKSLIINNELGNILSIKVHFKKNSALRRKKFTWRDDANSKKTSGSLGDLGIHLIDMVWYLFESDFITESVRAKMNTNVKTKEDKQVLVDDYAEIYGQLRNKVFVNIITSKCSVPEDCGFSIEVVGHKKEFKYHTGNPHVYKLIDGLNVVDCPVPQSLLNDPPNEFYGWADSFRSELINWIASTQNDWVEIPSFSDGFRSQEVLEMFFEKDS,failed
12,MAHHTKETMELIKELVSIPSPSGNTAKIINFIENYVSEWNVETKRNNKGALILTVKGKNDAQHRLLTAHVDTLGAMVKEIKPDGRLSLSMIGGFRWNSVEGEYCEIETSSGKTYTGTILMHQTSVHVYKDAGEAKRDEKNIEVRIDERVFSADEVRELGIEVGDFVSFDPRVQITESGYIKSRHLDDKVSVAILLKLIKRLQDENVTLPYTTHFLISNNEEIGYGGNSNIPEETVEYLAVDMGALGDGQASDEYTVSICAKDSSGPYHYALRKHLVELAKTNHIEYKVDIYPYYGSDASAAIRAGFDVKHALIGAGIDSSHAFERTHESSIAHTEALVYAYVMSNLIEE,not failed
13,MRMGLKADSWIKKMSLEHGMISPFCEKQVGKNVISYGLSSYGYDIRVGSEFMLFDNKNALIDPKNFDPNNATKIDASKEGYFILPANAFALAHTIEYFKMPKDTLAICLGKSTYARCGIIVNVTPFEPEFEGYITIEISNTTNLPAKVYANEGIAQVVFLQGDEMCEQSYKDRGGKYQGQVGITLPKILK,failed
14,MRDFGEILAENRKKKGYSQSDLVNLLSQEGIQVTTKALSKWENNAREPALHVFLTLCQLLDIEDIYESFFGENPYNIMSGLNEEGRNKLIEFADILKASKKFSPLSAKIIPFHHPVEITWEPVSAGTGNYLEDSVKETYDVGHLAPEQTDFGVRISGDSMEPLYHTDDVAWIQKKDSLANGEIGIFYLNGNTYIKELHDEPDGVYLISLNQKYRPIQVLESDSFKIFGKVIGKCKGAEIPGFHLEHHHHHH,not failed
15,LVVSEARFRAAIDAVQGVLWTNNASGKMVGEQPGWSALTGQIREEYEGVGWTKVVHPDDVEPTLSAWLAAVAEKRTFEFEHRVRRHDGVWRDCLIRAVPLIGDNGEIREWVGVHTDISEQKAAAEK,failed
16,MDTQTVAAYDTLAETFAREWREQPAPDDLYALLRRMFKAGGDTVDIGCGAGREVAWLNANGYPAVGYDASAGLLEAARTQYPGLSFRRAMLPELVGIAEGAFDNVVCETVIMHLPPAQIGAAVRRLLALLRPGGTLYLSWRVTPEADQRDGRGRLYTAFDAAGVREALAGAQVLFDEVAVSQSSGLEHHHHHH,not failed
17,MADLRKAARGRECQVRIPGVCNGNPETSVLAHIRLTGLCGTGTKPPDLIATIACSACHDEIDRRTHFVDAGYAKECALEGMARTQVIWLKEGVIKA,not failed
18,MSVISIILVLIIAFLAGLDGILDQFQFHQPLVSCTLIGLASGHTVAGIMLGGTLQFLALGWANIGAAVAPDVALASTAAAVIMIKGGDFSQKGITIAYGVAVPLAIAGLALTMVVRAISIGIVHGADAAAKNGNIRAVERSHYFALLLQGLRIVFPVALLLALPANHVKSILEAIPSWLSDGMTIGGGMVVAVGYAMILNMMATREVWPFFIIGFVLAAIPDTQITLFGLGMIGVALAMIYIALTNQTGRNSSSGQASSSSNDPIGDILEDY,failed
19,MDDVLRRNPLFAALDDEQSAELRASMSEVTLARGDTLFHEGDPGDRLYVVTEGKVKLHRTSPDGRENMLAVVGPSELIGELSLFDPGPRTATGTALTEVKLLALGHGDLQPWLNVRPEVATALLRAVARRLRKTNDAMSDLVFSDVPGRVARALLDLSRRFGVQSEEGIHVVHDLTQEELAQLVGASRETVNKALADFAQRGWLRLEARAVILLDVERLAKRSR,failed
20,MSKDFDLIIRNAYLSEKDSVYDIGIVGDRIIKIEAKIEGTVKDEIDAKGNLVSPGFVDAHTHMDKSFTSTGERLPKFWSRPYTRDAAIEDGLKYYKNATHEEIKRHVIEHAHMQVLHGTLYTRTHVDVDSVAKTKAVEAVLEAKEELKDLIDIQVVAFAQSGFFVDLESESLIRKSLDMGCDLVGGVDPATRENNVEGSLDLCFKLAKEYDVDIDYHIHDIGTVGVYSINRLAQKTIENGYKGRVTTSHAWCFADAPSEWLDEAIPLYKDSGMKFVTCFSSTPPTMPVIKLLEAGINLGCASDNIRDFWVPFGNGDMVQGALIETQRLELKTNRDLGLIWKMITSEGARVLGIEKNYGIEVGKKADLVVLNSLSPQWAIIDQAKRLCVIKNGRIIVKDEVIVA,not failed
